Experimental data from patent publication US20120329707A1 (INDIANA UNIVERSITY RESEARCH AND TECHNOLOGY, published 2012).
Numbered stars: 1 amine (or outer) side, 2 acyl side, 3 side chain; on linkers, the order of the positions; unused ones are H or OH. Square brackets hold non-standard residues; d marks the D form. Primed or numbered codes have the meaning given here. Side chains are listed from the residue outwards. Ends that are not written are not given here. * marks the point of attachment. 40K‑TE PEG = 40 kDa PEG covalently bound via thioether, formed by reaction of the free thiol of the peptide (Cys side chain) with an iodoacetic-functionalized PEG; 40K‑TE PEG(3) = 40 kDa PEG bound to the Cys thiol via a thioether, made by reacting the free-thiol peptide with iodoacetic-functionalised PEG; 40K‑TE PEG″ = 40 kDa PEG bound to Cys via thioether made from an iodoacetyl-functionalised PEG; EDTA amide = ethylenediaminetetraacetic acid amide, O=C(O)CN(CCN(CC(=O)O)CC(=O)*)CC(=O)O; 20K‑TE PEG = 20 kDa PEG bound via thioether from iodoacetic-functioned PEG; benzoylpropionyl = benzoylpropionyl acyl group, O=C(CCC(=O)*)c1ccccc1; 12K‑ME PEG = 12 kDa PEG bound via maleimido-thioether; Acetyl(1-adamantyl) = O=C(CC12CC3CC(CC(C3)C1)C2)*; γGlu = O=C(O)[C@H](CCC(=O)[*:2])N[*:1]; Palmitoyl = CCCCCCCCCCCCCCCC(=O)*; Aib = CC(C)(N)C(=O)O

T1: GIP receptor
T1 sequence (P48546 whole entry, species assumed, looked up): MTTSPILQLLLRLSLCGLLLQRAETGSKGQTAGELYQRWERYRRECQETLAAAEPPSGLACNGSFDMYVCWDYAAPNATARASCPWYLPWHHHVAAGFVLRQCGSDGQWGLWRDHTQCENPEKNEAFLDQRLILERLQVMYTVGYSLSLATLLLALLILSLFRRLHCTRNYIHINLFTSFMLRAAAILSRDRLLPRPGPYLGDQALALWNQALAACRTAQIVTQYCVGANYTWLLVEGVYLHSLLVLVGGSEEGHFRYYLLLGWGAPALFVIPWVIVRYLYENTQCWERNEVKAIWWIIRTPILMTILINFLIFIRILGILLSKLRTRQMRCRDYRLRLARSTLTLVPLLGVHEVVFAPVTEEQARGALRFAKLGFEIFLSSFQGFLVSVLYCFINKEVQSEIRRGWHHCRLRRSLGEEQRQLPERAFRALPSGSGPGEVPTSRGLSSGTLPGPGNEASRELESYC


Experiments:
Test in all cases: cell-based or functional assay
GLP-1 receptor = target: GLP-1 receptor
glucagon receptor = target: glucagon receptor
GIP receptor = target: T1, GIP receptor

Binder | EC50 (nM) at GLP-1 receptor (GLP-1 receptor) [nM] | EC50 (nM) at glucagon receptor (glucagon receptor) [nM] | EC50 (nM) at GIP receptor (GIP receptor) [nM]
H[Aib]QGTFTSDYSKYLDEKRA[Aib]EFVC(40K‑TE PEG)WLLDT-NH2 [peptide of SEQ ID NO: 13] | 0.067 | 0.141 | 
H[Aib]QGTFTSDYSKYLDEKRA[Aib]EFVC(40K‑TE PEG″)WLLDE-NH2 [peptide of SEQ ID NO: 16] | 0.487 | 0.563 | 465
H[Aib]QGTFTSDYSKYLDEK[Aib]AKEFVC(40K‑TE PEG(3))WLLDT-NH2 [peptide of SEQ ID NO: 52] | 0.054 | 4.5 | 
H[Aib]QGTFTSDYSKYLDEKRA[Aib]DFVC(40K‑TE PEG(3))WLLDT-NH2 [peptide of SEQ ID NO: 54] | 0.097 | 0.939 | 
H[dS]QGTFTSDK(EDTA amide)SKYLDERAAQDFVQWLLDGGPSSGAPPPS-NH2 [peptide of SEQ ID NO: 55] | 0.108 | 4.34 | 
H[dA]QGTFTSDK([γGlu-Palmitoyl])SKYLDERAAQDFVQWLLDT-NH2 [peptide of SEQ ID NO: 56] | 0.02 | 0.006 | 1.64
H[Aib]QGTFTSDK(Palmitoyl)SKYLDSRRA[Aib]DFVQWLMNT-NH2 (N-terminus assumed; SMILES CCCCCCCCCCCCCCCC(=O)NCCCC[C@H](NC(=O)[C@H](CC(=O)O)NC(=O)[C@H](CO)NC(=O)[C@@H](NC(=O)[C@H](Cc1ccccc1)NC(=O)[C@@H](NC(=O)CNC(=O)[C@H](CCC(N)=O)NC(=O)C(C)(C)NC(=O)[C@@H](N)Cc1c[nH]cn1)[C@@H](C)O)[C@@H](C)O)C(=O)N[C@@H](CO)C(=O)N[C@@H](CCCCN)C(=O)N[C@@H](Cc1ccc(O)cc1)C(=O)N[C@@H](CC(C)C)C(=O)N[C@@H](CC(=O)O)C(=O)N[C@@H](CO)C(=O)N[C@@H](CCCNC(=N)N)C(=O)N[C@@H](CCCNC(=N)N)C(=O)N[C@@H](C)C(=O)NC(C)(C)C(=O)N[C@@H](CC(=O)O)C(=O)N[C@@H](Cc1ccccc1)C(=O)N[C@H](C(=O)N[C@@H](CCC(N)=O)C(=O)N[C@@H](Cc1c[nH]c2ccccc12)C(=O)N[C@@H](CC(C)C)C(=O)N[C@@H](CCSC)C(=O)N[C@@H](CC(N)=O)C(=O)N[C@H](C(N)=O)[C@@H](C)O)C(C)C) [peptide of SEQ ID NO: 58] | 0.025 | 0.09 | 35.7
H[Aib]QGTFTSDK(Palmitoyl)SKYLDERRA[Aib]DFVQWLMNT-NH2 (N-terminus assumed; SMILES CCCCCCCCCCCCCCCC(=O)NCCCC[C@H](NC(=O)[C@H](CC(=O)O)NC(=O)[C@H](CO)NC(=O)[C@@H](NC(=O)[C@H](Cc1ccccc1)NC(=O)[C@@H](NC(=O)CNC(=O)[C@H](CCC(N)=O)NC(=O)C(C)(C)NC(=O)[C@@H](N)Cc1c[nH]cn1)[C@@H](C)O)[C@@H](C)O)C(=O)N[C@@H](CO)C(=O)N[C@@H](CCCCN)C(=O)N[C@@H](Cc1ccc(O)cc1)C(=O)N[C@@H](CC(C)C)C(=O)N[C@@H](CC(=O)O)C(=O)N[C@@H](CCC(=O)O)C(=O)N[C@@H](CCCNC(=N)N)C(=O)N[C@@H](CCCNC(=N)N)C(=O)N[C@@H](C)C(=O)NC(C)(C)C(=O)N[C@@H](CC(=O)O)C(=O)N[C@@H](Cc1ccccc1)C(=O)N[C@H](C(=O)N[C@@H](CCC(N)=O)C(=O)N[C@@H](Cc1c[nH]c2ccccc12)C(=O)N[C@@H](CC(C)C)C(=O)N[C@@H](CCSC)C(=O)N[C@@H](CC(N)=O)C(=O)N[C@H](C(N)=O)[C@@H](C)O)C(C)C) [peptide of SEQ ID NO: 59] | 0.01 | 0.051 | 7.48
H[Aib]QGTFTSDYSKYLD[Aib]KRA[Aib]EFVC(40K‑TE PEG″)WLLDT-NH2 [peptide of SEQ ID NO: 38] | 0.31 | 0.141 | 
H[Aib]QGTFTSDYSKYLD[Aib]KRAKEFVQWLLC(40K‑TE PEG)T-OH [peptide of SEQ ID NO: 39] | 1.28 | 0.852 | 
H[Aib]QGTFTSDYSKYLD[Aib]KRAKEFVQWLLDTC(40K‑TE PEG″)-NH2 [peptide of SEQ ID NO: 40] | 0.653 | 1.19 | 
H[Aib]QGTFTSDYSKYLDEKRA[Aib]EFVC(40K‑TE PEG)WLL[Aib]T-NH2 [peptide of SEQ ID NO: 41] | 0.074 | 0.309 | 
H[Aib]QGTFTSDYSKYLDEKRA[Aib]EFV[Aib]WLLC(40K‑TE PEG)T-NH2 [peptide of SEQ ID NO: 42] | 0.117 | 1.01 | 
H[dS]QGTFTSDK([γGlu-Palmitoyl])SKYLDEQAAKEFIC(12K‑ME PEG)WLLDT-NH2 [peptide of SEQ ID NO: 43] | 0.011 | 0.02 | 
H[dS]QGTFTSDK([γGlu-Palmitoyl])SKYLDEQAAKEFIC(20K‑TE PEG)WLLDT-NH2 [peptide of SEQ ID NO: 44] | 0.017 | 0.023 | 
H[Aib]QGTFTSDYSKYLDEKRA[Aib]EFVC(40K‑TE PEG)WLLDT-OH [peptide of SEQ ID NO: 45] | 1.44 | 0.651 | 
H[Aib]QGTFTSDYSKYLD[Aib]KRA[Aib]EFVC(40K‑TE PEG(3))WLLDGGPSSGAPPPS-NH2 [peptide of SEQ ID NO: 46] | 0.136 | 0.227 | 
H[Aib]QGTFTSDYSKYLDEKRA[Aib]EFVC(40K‑TE PEG)WLLDGGPSSGAPPPS-NH2 [peptide of SEQ ID NO: 47] | 0.052 | 0.591 | 
H[dS]QGTFTSDK([γGlu-Acetyl(1-adamantyl)])SKYLDERAAQDFVQWLLDT-NH2 (N-terminus assumed; SMILES CC(C)C[C@H](NC(=O)[C@H](Cc1ccc(O)cc1)NC(=O)[C@H](CCCCN)NC(=O)[C@H](CO)NC(=O)[C@H](CCCCNC(=O)CC[C@H](NC(=O)CC12CC3CC(CC(C3)C1)C2)C(=O)O)NC(=O)[C@H](CC(=O)O)NC(=O)[C@H](CO)NC(=O)[C@@H](NC(=O)[C@H](Cc1ccccc1)NC(=O)[C@@H](NC(=O)CNC(=O)[C@H](CCC(N)=O)NC(=O)[C@@H](CO)NC(=O)[C@@H](N)Cc1c[nH]cn1)[C@@H](C)O)[C@@H](C)O)C(=O)N[C@@H](CC(=O)O)C(=O)N[C@@H](CCC(=O)O)C(=O)N[C@@H](CCCNC(=N)N)C(=O)N[C@@H](C)C(=O)N[C@@H](C)C(=O)N[C@@H](CCC(N)=O)C(=O)N[C@@H](CC(=O)O)C(=O)N[C@@H](Cc1ccccc1)C(=O)N[C@H](C(=O)N[C@@H](CCC(N)=O)C(=O)N[C@@H](Cc1c[nH]c2ccccc12)C(=O)N[C@@H](CC(C)C)C(=O)N[C@@H](CC(C)C)C(=O)N[C@@H](CC(=O)O)C(=O)N[C@H](C(N)=O)[C@@H](C)O)C(C)C) [peptide of SEQ ID NO: 48] | 0.039 | 0.026 | 
H[dS]QGTFTSDK(benzoylpropionyl)SKYLDERAAQDFVQWLLDGGPSSGAPPPS-NH2 (N-terminus assumed; SMILES CC(C)C[C@H](NC(=O)[C@H](CC(C)C)NC(=O)[C@H](Cc1c[nH]c2ccccc12)NC(=O)[C@H](CCC(N)=O)NC(=O)[C@@H](NC(=O)[C@H](Cc1ccccc1)NC(=O)[C@H](CC(=O)O)NC(=O)[C@H](CCC(N)=O)NC(=O)[C@H](C)NC(=O)[C@H](C)NC(=O)[C@H](CCCNC(=N)N)NC(=O)[C@H](CCC(=O)O)NC(=O)[C@H](CC(=O)O)NC(=O)[C@H](CC(C)C)NC(=O)[C@H](Cc1ccc(O)cc1)NC(=O)[C@H](CCCCN)NC(=O)[C@H](CO)NC(=O)[C@H](CCCCNC(=O)CCC(=O)c1ccccc1)NC(=O)[C@H](CC(=O)O)NC(=O)[C@H](CO)NC(=O)[C@@H](NC(=O)[C@H](Cc1ccccc1)NC(=O)[C@@H](NC(=O)CNC(=O)[C@H](CCC(N)=O)NC(=O)[C@@H](CO)NC(=O)[C@@H](N)Cc1c[nH]cn1)[C@@H](C)O)[C@@H](C)O)C(C)C)C(=O)N[C@@H](CC(=O)O)C(=O)NCC(=O)NCC(=O)N1CCC[C@H]1C(=O)N[C@@H](CO)C(=O)N[C@@H](CO)C(=O)NCC(=O)N[C@@H](C)C(=O)N1CCC[C@H]1C(=O)N1CCC[C@H]1C(=O)N1CCC[C@H]1C(=O)N[C@@H](CO)C(N)=O) [peptide of SEQ ID NO: 49] | 0.01 | 0.063 | 
H[Aib]QGTFTSDYSKYLDEKRA[Aib]EFVC(40K‑TE PEG)WLL[Aib]GGPSSGAPPPS-NH2 [peptide of SEQ ID NO: 51] | 0.062 | 2.04 | 
